The data set is described as follows: label from the status in PepcDB records.

Turning to “MLRFMVRSFASLAISSAYSIPIGLSSVTSILDEDTIIERVCYGYLKCNATCSTEIVIVNYSITLNMSDDVVVKLLNDGYFSLDAGAYFGVVPKAIWSRKFQEIDNTVRLATNVLYITESDGTSILVDSGIGNKFDDKFRKIYRVEKQSDIYEYIRLHGDPNSVRMIINSHLHFDHVGHNADFKNAYAYAQADEFKAARYRNYITKANYRLSASQIKNKVEIGGSKRINGFIRVIKTDGHTPGHQVILINAGGRKIMYFGDIVPSTFHLKLPYRTAIDLDPLKTIEFKKNLVKMAIRENYICIFNHDVETPAAILSGDYSDPKYVKVDI”, the protein production entry was “failed”.

For “MLRIIVIGTTGSGKTTFARALAQRLGLPHGEQDAWNHEANWQMAPLGRFRARVDTFTSQPAWVMDGNYGKARDLGWARADTLIWLDFPAWLVYSRLVRRTLWRVLTQQELWNGNRETWRGALLDPEGPLRWFWKTHWRRRQETPALAAEFPHLRLVRLRSPGEARRFLAAVGRGHPTALEHHHHHH”, the protein production result is reported as “failed”.

For “MLRLDTRFLPGFPEALSRHGPLLEEARRRLLAKRGEPGSMLGWMDLPEDTETLREVRRYREANPWVEDFVLIGIGGSALGPKALEAAFNESGVRFHYLDHVEPEPILRLLRTLDPRKTLVNAVSKSGSTAETLAGLAVFLKWLKAHLGEDWRRHLVVTTDPKEGPLRAFAEREGLKAFAIPKEVGGRFSALSPVGLLPLAFAGADLDALLMGARKANETALAPLEESLPLKTALLLHLHRHLPVHVFMVYSERLSHLPSWFVQLHDESLGKVDRQGQRVGTTAVPALGPKDQHAQVQLFREGPLDKLLALVIPEAPLEDVEIPEVEGLEAASYLFGKTLFQLLKAEAEATYEALAEAGQRVYALFLPEVSPYAVGWLMQHLMWQTAFLGELWEVNAFDQPGVELGKVLTRKRLAG”, the protein production entry is recorded as “not failed”.

For the sequence “MLRPAGLWRLCRRPWAARVPAENLGRREVTSGVSPRGSTSPRTLNIFDRDLKRKQKNWAARQPEPTKFDYLKEEVGSRIADRVYDIPRNFPLALDLGCGRGYIAQYLNKETIGKFFQAAIAENALKNSSETEIPTVSVLADEEFLPFKENTFDLVVSSLSLHWVNDLPRALEQIHYILKPDGVFIGAMFGGDTLYELRCSLQLAETEREGGFSPHISPFTAVNDLGHLLGRAGFNTLTVDTDEIQVNYPGMFELMEDLQGMGESNCAWNRKALLHRDTMLAAAAVYREMYRNEDGSVPATYQIYYMIGWKYHESQARPAERGSATVSFGELGKINNLMPPGKKSQ”, the protein production entry is reported as “failed”.

Consider “MLRQGAKHTACTGRRNDDDRTPKEQSMKIVVIGGTGLIGSNVVNRLRRDGHETVAASPGTGVNTITGEGLAQALDGAQVVVDVANSPSFEDQAVMAFFETSGRTLLAAEAAAGVTHHLALSVVGTDRLADSGYFRAKVAQEALIKASKVPYTILRATQFFEFIESIVNAGADGDTVRLSPALIQPIAADDVSAALADLAVGMPLNGTVEVAGPDRLPLDELARKFLAARGDRRQVVADVHARYFGSELDDRSLVAGDNPRVGSTRLMNWLSRSPAPQ”, for which the protein production entry is “failed”.

Take “MLRQSMNDYFEQPWYLTYADAERLSDLRDETLTLRDEEVTGHVPTEVEYEELQQVNDELAQRIGDMLKVHKEQGAAIDLALVLRDYLASHPRTHHFDLARMVVDQAVRLGYSESDYRAIQPDWTAINDFGAKVQANVIDRYLEHHHHHH”: the protein production entry was “not failed”.

Take “MLRSVYEMTKISKIIDELNNQQADAAWITTPLNVYYFTGYRSEPHERLFALLIKKDGKQVLFCPKMEVEEVKASPFTGEIVGYLDTENPFSLYPQTINKLLIESEHLTVARQKQLISGFNVNSFGDVDLTIKQLR”: the protein production entry was “not failed”.

Turning to “MLSAVRRANLYLNLFGFSKVPLIWLCHPKIIAIDSKHVEVRIPLRRRTKNHLNSMYFGALAVGADVAGGFLAMSKAQEKGEAISLAFKGVKAEFLKRPEADVHFVCNDGHVIDEMLDHTIATGERVNRDVKIIALCPSLHGQEPMAEFALTLSIKKAAQHTKLEHHHHHH”, the protein production entry is “not failed”.

“MLSERRLKVLRAIVQDYVGTEEPVGSKALTERHNLGVSPATVRNDMAALEDEGFIAQPHTSAGRIPTDKGYRLFVDKLAGVKPMTAPERRAIQNFLEGAVDLDDVVARTVRLLAQLTRQVAVVQYPSLTRSTVRHVELLSLAPARLMLVLITDTGRVEQRMVDCPAPFGEASLADLRARLNSRVAGRRFADVPALVEDLAEPFEAEDRGTVSTVLSTLLETLVEENEERLMIGGTANLTRFGHDFPLVIRPVLEALEEQVVLLKLLGEAKDPGVTVRIGHENAHEGLNSTSVVSVGYGSGGEAVAKLGVVGPTRMDYPGTMGAVRAVARYVGQILAES”: the protein production result is recorded as “failed”.

Consider “MLSIEVTVFAAIAYLTILFSIAYRGDRGASNRVRPYRYSLAQGVHCTSWAFFGTITQSAYYGWAFAPTYVGAIIVFILLHSLQLKLLNYCKHQNITSIADLIGTRYGKSPVLAGVVAITAFIAVVPYISLQLRAVTSSFATVTGFDTNPSWIFDLSFLVALTMIGFGFLFGTRRLSLAEQHSGLMDAIAFESLVKLAAFIIVGLFASYTVFDGLADLFQKSFETQHTQDVLAGREYGGYVFAVHMLLGGLSMFSLPRQFHVGYVENTHSDELKTARWAFPLYLFAINFFILPLSLSALHLAPELANQDTFMLVIPLMMDRPDITLIAFIGGLSAATSMVIIALLALSIMVSNDVVMPIWLRMTRQKLRQFSFTPTRILSIRRMTMVVVMFMAYLYYQATIESMPLVNSGLLSLALLTQLTPAILATVLWRSATQTGVLVGLVVGTALWVILLLVPSIGLQPQVTDIDIANGVLISLGANLICFWLFSLISKNVQTDLQSIQSSDDYEQQPSLTWARLRSLLSRFYDDRQLAAIQRRLRMDLLTPEGQSMVPAPMLVRIERELSAVIGTSASRLLLDTVSEQQEFPVSRVVDWATEASKLYQFNRELLQASVENIPQGISVVDQKLRLVAWNRRYLEIFDYPDGLVRAGMPVEELLRYNARRGLLSNSQNTDVEAEIQKRLNFLRTGSTYHYQRQQGELTVELQGSPMPGGGFVTTYSDITERVEAQRQLQKINQELEERVDERTQQLLSAKEAEEKAHESKSRFFAAVSHDLMQPFNAASLFCEMLQSRLPNEYLPLAVNIQRSLDHAEELLTMLLDMTKLDAGNLKPDYQEFSIDQALLPLVERYQAMAKEKQLRFHYHKSSALVKTDRKLLNRIIQNLLSNALRYTQHGRIVLGFRRHQQHLTICIIDTGSGIPEHKQTEIFREFHQLQSSGDNPGLGLGLSIVERMCRLLRIDLSLSSTLDKGTAFSLTLPVIGWQKEPQPVVIKNDSVDEKLLKDMRVLVIDNDPGVLKATAGLLTDWGAETMTASSFDQARKHPPCDLILADYHLDNGNTGIELVVSIRKLWNSNTPAIINSADPDELLREQALEANAYFIPKPLKSGALKRLLKRIRRI”, for which the protein production result was “failed”.

Turning to “MLSIGSGKLLIGCVAGLLVLGGATLGLGIGGFADVPADSETTVGEDELEIRAVQTPTEIRPDEPLRVQLRLTNAGSETTTKQVALQLSGDGDQQSLETVATKQVEVSAAEPTNVTLTVEPEQLSSGEYTYAVAVGESSSPETTGSVAVLTPPTFVLDDTTENATIVRGTNVSIRANLTNAGAYRGVQTVRIAVDEDQNGQYTDAERLDESVYSLAGGQSQVSTATAHTTDMEPGRYQYKIATENTTATGTLSVQQPATFRVQNTTAPVNVTKGETANVSVVVKNVGDVDGTDNVTIRSDSLNTTYSRSVSLAANETTTVSIGVNTTNLSSGTHNHSLGTSTDTDPVSMTVQDSHFEVSDLDGPNVLYVGDMAVFSADVTNTGNITGTQSIQHRIDSDDDDRPEAYGVDRNVTLAPGESTRVRFEIDYTVTDSTEYPVEPLRLQTYVHGIYSEDARASTAMSVKPSWAKDGGSSSYSGSTSVSEGDRASLDEITQDKYGRHYDEVSGETKRQVEEIHERQPFADGLAAAEVRTREEIARQEYDADVKAGEKFNFTGLDIETQQKVESDFDAQFETDSGDRIESWDELANDTYETSYENLTTSRQADIRTTYQDQFE”, the protein production result is listed as “failed”.

“MLSINPNEQTEKDNYKLLTGSIIPRPVAFVTSVTKEGVLNGAPYSYFNIVAANPPLISVSVQRKAGERKDTSRNAIEKGEFVVHISDESYVAAINETAANLPPNESEIELAKLTPIESEVISVPGVKEANIRMECVLERAIPLGGTEDSPACDLLIGRVVRFHVAEHLYEKGRIHAEGLKPISRLAGHNYAKLGEQFELVRPI”: the protein production entry is reported as “not failed”.

“MLSKILYADSGTSQTQEMLKAMMDFPAVQKASITILHVVPPQITTEAFTEKWAEGGKILADLLEDVAIEPSKVSTVLRQGDPKGVVCDVANEIDADLIIMGSRGLKRLEAILENSVSQYVFQLTNHPMLLVKDDIYVKRIKRVMVALDKSAAAEYALELALELLRDYPEGELILARVNPDLKPDLLPLSRQEIEENPVLAPAIAKAKRLGIAYRCTVTGGKPGEKLCELAEDYNADLMLLGSPDRRPSIAKSLPDLDRLLGTSLSDYIRVNAPCPVLLTRKEGI”: the protein production entry was “failed”.

Consider “MLSSGITKAKGMAVVSEGSVPMDQSVGHLPASLLSLVSDPVPKEKVLLPKALRQTLLEKGCHNVRAHGFDAISTQASACSSVAQAGARHTQPSSRARAQVRGHTGDPLASTVSPDLTPDVYVLRVKLEETGELFRVANCRNDMTVRELKEELDLMVGIPFNLQRLHFLDRGILMDDATLKFYDVIPGALISLCIWHYDGWTELVLAAVEGDPSKMSCLGISEDTFYRTANSQHFKGEQWRQWTAQRAFVALYISAHRGHVDAVQYLLGLGANCLAKSPLGRTPLHVVAAMGRTDCVQPLLEHGASIHDRDLKSDTPITIARRLKRGHLEHKMFLLYWMVKSGSRDPDLVGRKALEKSSPGMATRRSTILIS”, for which the protein production entry is “failed”.

Turning to “MLSTGLDELVYRSNLIGSDRAVCNWGGGNTSMKTVEKDFRGREIAVMWVKGSGSDLATMGAKNFTGLNLEDIRPLIEREEMSDEEMVEYLGHCMIDRNHPRPSIETLLHAFLPFKHVDHTHPDAIISICCADNGKEIAKNLFGDRFVWVPYVRPGFSLSKLIAEGVQKNPHAELVLMEKHGLVVWGETAKESYDRTISVINEAEAYIRSRINESVIFGGGKLEHHHHHH”, the protein production entry was “failed”.

For the sequence “MLSTTTIGFPRIGNQRQLKFAMESYFKGDSGEAELLAVAHKVQSDAWALQKAAGIAVIGLDGTLYDQVLDTITWLGAIPPRFKHLSGLQRYYAMARGGAALDMSKFFDTNYHYLVPELGPDVLGPATAAGAPLQPDFSGPLDKLARGQAVVGRERAVPILIGPVTFVSLSRGCELPLDQAVARLLPTYCALLQQLAAAGAPEVQLHEPVLATSEGAGMRAEFETAYAQMAQAAGSVPLHLVTYYDDLGAAYPWAVQLPVAAVTLDFLGPPGAAVPSQTLALLQQHGFPADKRLGAGVVDGRSVWKDDGTAVALLRALLDTGAVSSDRLVVTSSAPLQHLPYDLGLELEAPKTPEAEPHLPPALAARLGFAKQKVEEIVSVARLAASPAAAAAAAGHGAVVQLQRLQQGKGVEDHTADIPAEWFSRPKPYDVRREQQLQLPAFPTTTIGSFPQTAEVRRLRQQLKSGRLTQAEYEGLIAGHIAHAVGVQEALGIDVLVHGEAERTDMVEYFGMQLGGMLFTRAGWVQSYGSRCVRPPLVVDDITYRGPMTCWEYKVASAYTRKPVKGMLTGPVTILNWSFPRKDISRAAQAMQLGLALRQEVAALEAAGCTIIQVDDPALREGLPLKRERWASYLSWAVDAFRLCTGVAAAGTQVVTHLCYSDFQDILPAIDRMDADVLTIENSRSDNAMMAALAAAGYGRDIGPGVYDVHSPVVPSVEFIKSRIRSFVDSGILSGRYDRIWVNPDCGLKTRGWPETIAALRNMVEAAAQARAELQLAGGAAVAPVAGGVEAAGKGAALGAAAGTSRCVDCCH”, the protein production result was “not failed”.
